As a reminder, the koff is a measure of how fast the partners let go of each other. As usually defined, the kon is the second-order rate constant of association.

Experimental findings from paper PMC2749821 (BMC Biology, 2009) are described below.

B3: BMP receptor II (BMPR-II) ectodomain, human (receptor, UniProt Q13873 32-150, looked up)
chain: RLCAFKDPYQQDLGIGESRISHENGTILCSKGSTCYGLWEKSKGDINLVKQGCWSHIGDPQECHYEECVVTTTPPSIQNGTYRFCCCSTDLCNVNFTENFPPPDTTPLSPPHSFNRDET
modifications: N-biotinylated (sulfo-NHS-LC-biotin) where immobilised
notes: also called hBMPR-II
B4: bone morphogenetic protein 7 (BMP7), human (ligand, UniProt P18075 293-431, looked up)
chain: STGSKQRSQNRSKTPKNQEALRMANVAENSSSDQRQACKKHELYVSFRDLGWQDWIIAPEGYAAYYCEGECAFPLNSYMNATNHAIVQTLVHFINPETVPKPCCAPTQLNAISVLYFDDSSNVILKKYRNMVVRACGCH
modifications: biotin (sulfo-NHS-LC-biotin) where immobilised
notes: human BMP7, CHO-cell derived, bought; dimeric ligand; also called hBMP7; source: bought: R&D Systems (CHO-cell derived)

Common to all, as to settings: both partners purified
Assay [1] deals with B3. Nature of the assay: SPR; Biacore 2000; ligands as analyte over biotinylated receptor ectodomains (about 200 RU) on streptavidin-coated CM5 chips; HBS500 (10 mM HEPES pH 7.4, 500 mM NaCl, 3.4 mM EDTA, 0.005% P20), 25°C, 10 μl/min; apparent affinities, 1:2 interaction with avidity.
Assay [2] has as its target B3. Nature of the assay: SPR; Biacore 2000; receptor ectodomains as analyte over biotinylated ligands on streptavidin-coated CM5 chips; HBS500, 25°C, 10 μl/min; apparent affinities, 1:1 interaction.
The target in assay [3] is B4. Nature of the assay: SPR; Biacore 2000; ligands as analyte over biotinylated receptor ectodomains (about 200 RU) on streptavidin-coated CM5 chips; HBS500 (10 mM HEPES pH 7.4, 500 mM NaCl, 3.4 mM EDTA, 0.005% P20), 25°C, 10 μl/min; apparent affinities, 1:2 interaction with avidity. For orientation: Surface plasmon resonance follows binding to a sensor surface in real time, without labels.

Assay [4] deals with B4. Nature of the assay: SPR; Biacore 2000; receptor ectodomains as analyte over biotinylated ligands on streptavidin-coated CM5 chips; HBS500, 25°C, 10 μl/min; apparent affinities, 1:1 interaction.
The target in assay [5] is T1, activin receptor type II (ActR-II) ectodomain, human (human, UniProt P27037 18-135, N-biotinylated (sulfo-NHS-LC-biotin) where immobilised).
T1 construct: also called hActR-II
Nature of the assay: SPR; Biacore 2000; ligands as analyte over biotinylated receptor ectodomains (about 200 RU) on streptavidin-coated CM5 chips; HBS500 (10 mM HEPES pH 7.4, 500 mM NaCl, 3.4 mM EDTA, 0.005% P20), 25°C, 10 μl/min; apparent affinities, 1:2 interaction with avidity.

Assay [6] has as its target T1, activin receptor type II (ActR-II) …. Nature of the assay: SPR; Biacore 2000; receptor ectodomains as analyte over biotinylated ligands on streptavidin-coated CM5 chips; HBS500, 25°C, 10 μl/min; apparent affinities, 1:1 interaction.

B1: bone morphogenetic protein 2 (BMP2), mature part, wild type (ligand, human)
chain: MAQAKHKQRKRLKSSCKRHPLYVDFSDVGWNDWIVAPPGYHAFYCHGECPFPLADHLNSTNHAIVQTLVNSVNSKIPKACCVPTELSAISMLYLDENEKVVLKNYQDMVVEGCGCR
modifications: biotin (sulfo-NHS-LC-biotin) where immobilised
notes: N-terminal Met-Ala added to the mature part; dimeric ligand; also called wtBMP2; BMP2wt; source: E. coli, isolated from inclusion bodies, renatured and purified
For the molecule B1, in assay [1], the “KD (kin)” value was 45 nM and the Kd was found to be 59 nM. For the same molecule, the Kd in assay [2] amounted to 13000 nM.

B2: growth and differentiation factor 5 (GDF5), mature part (ligand)
chain: MKRQGKRPSKNLKARCSRKALHVNFKDMGWDDWIIAPLEYEAFHCEGLCEFPLRSHLEPTNHAVIQTLMNSMDPESTPPTCCVPTRLSPISILFIDSANNVVYKQYEDMVVESCGCR
modifications: biotin (sulfo-NHS-LC-biotin) where immobilised
notes: N-terminal Met-Lys added to the mature part; dimeric ligand; source: E. coli, isolated from inclusion bodies, renatured and purified
Consider B2, for which, in assay [1], the “KD (kin)” value is 36 nM. In addition, the values for the Kd in assay [1] and in assay [2] were 46 nM and 60000 nM, respectively.
Turning to B3, in assay [3], the Kd was 40 nM, the koff was 0.024 s⁻¹ and the on-rate (kon) came out at 960000 M⁻¹ s⁻¹. For the same molecule, in assay [4], the Kd is 9100 nM and the koff was greater than 0.1 s⁻¹.
Consider B4, for which the “KD (kin)” value in assay [1] came out at 25 nM. Besides, in assay [5], the “KD (kin)” value stood at 5.1 nM, the Kd worked out at 8 nM, the koff came out at 0.0062 s⁻¹ and the kon came to 1.2e+06 M⁻¹ s⁻¹. Further, in assay [6], the Kd is 880 nM and the koff is greater than 0.1 s⁻¹.
